From paper PMC4541722

Tests used:
[1] = test system: Nc1ccn([C@H]2C[C@H](O)[C@@H](CO)O2)c(=O)n1; experiment: purified protein; assay type: biochemical, Mesomycoplasma hyorhinis; conditions: PBS, 37 °C, 10 min, 4 nM enzyme
[2] = test system: Nc1ccn([C@@H]2O[C@H](CO)[C@@H](O)C2(F)F)c(=O)n1; experiment: purified protein; assay type: biochemical, Mesomycoplasma hyorhinis; conditions: PBS, 37 °C, 10 min, 4 nM enzyme, fit up to 30 mM substrate, second KM at very high concentrations not determined

Question: How did the Km [1] turn out when “CDAHyor (M. hyorhinis cytidine deaminase) (Mesomycoplasma hyorhinis MCLD)” was run?
Answer: The Km was 2.586 ± 0.114 mM.

Question: What about the kcat [1] of the same substance?
Answer: Its kcat is 127 ± 2 s⁻¹.

Question: What about the kcat/Km [1] of the same substance?
Answer: The kcat/Km was 49000 M⁻¹ s⁻¹.

Question: What about the Km [2] of the same substance?
Answer: Its Km is 9.064 ± 1.487 mM.

Question: What about the kcat [2] of the same substance?
Answer: Its kcat is 105 ± 7 s⁻¹.

Question: What about the kcat/Km [2] of the same substance?
Answer: The kcat/Km was 12000 M⁻¹ s⁻¹.
